Laboratory results: the supplement of paper PMC9233669
Variants at the floor of the assay were thinned out.

What was measured:
[1] = system: biotinyl-Ile-oxazolone; assay: self-aminoacylation, catalytic enhancement (BIO) (fold over background); higher = more active; k-Seq, kA / k0A0; sequences stand for … in GGGAAUGGAUCCACAUCUACGAAUUC…UUCACUGCAGACUUGACGAAGCUG
Summary of the method: (§1)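 Mutagenized RNA pools with a 21-nt variable region (0.43 μM) were reacted with each biotinyl-aminoacyl-oxazolone at 2–1250 μM for 90 minutes at room temperature, in 50 μL HEPES/NaCl/KCl/MgCl2/CaCl2 buffer containing 5% acetonitrile at pH 6.9–7.0. RNA captured on streptavidin was quantified by triplicate qPCR and by Illumina sequencing. The fraction reacted for each sequence was fit to a pseudo-first-order model with bootstrapping, and catalytic enhancement is the median kA divided by the uncatalyzed rate, taken as the low-activity peak of a bimodal Gaussian fit.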

[2] = system: biotinyl-Met-oxazolone; assay: self-aminoacylation, catalytic enhancement (BMO) (fold over background); higher = more active; k-Seq, kA / k0A0; sequences stand for … in GGGAAUGGAUCCACAUCUACGAAUUC…UUCACUGCAGACUUGACGAAGCUG
Summary of the method: as §1

[3] = system: biotinyl-Leu-oxazolone; assay: self-aminoacylation, catalytic enhancement (BLO) (fold over background); higher = more active; k-Seq, kA / k0A0; sequences stand for … in GGGAAUGGAUCCACAUCUACGAAUUC…UUCACUGCAGACUUGACGAAGCUG
Summary of the method: as §1

[4] = system: biotinyl-Phe-oxazolone; assay: self-aminoacylation, catalytic enhancement (BFO) (fold over background); higher = more active; k-Seq, kA / k0A0; sequences stand for … in GGGAAUGGAUCCACAUCUACGAAUUC…UUCACUGCAGACUUGACGAAGCUG
Summary of the method: as §1

[5] = system: biotinyl-Trp-oxazolone; assay: self-aminoacylation, catalytic enhancement (BWO) (fold over background); higher = more active; k-Seq, kA / k0A0; sequences stand for … in GGGAAUGGAUCCACAUCUACGAAUUC…UUCACUGCAGACUUGACGAAGCUG
Summary of the method: as §1

[6] = system: biotinyl-Val-oxazolone; assay: self-aminoacylation, catalytic enhancement (BVO) (fold over background); higher = more active; k-Seq, kA / k0A0; sequences stand for … in GGGAAUGGAUCCACAUCUACGAAUUC…UUCACUGCAGACUUGACGAAGCUG
Summary of the method: as §1

Sequence | self-aminoacylation [1] | self-aminoacylation [2] | self-aminoacylation [3] | self-aminoacylation [4] | self-aminoacylation [5] | self-aminoacylation [6]
AAGUUUGCUUAUAGUCUCAAG [Fam3.1 aminoacylation ribozyme variant] | 1.05 | 1.08 | 0.902 | 1.41 | 0.69 | 0.888
AAGUUUGGCAAUAGUCGCAAG [Fam3.1 aminoacylation ribozyme variant] | 1.79 | 1.49 | 1.4 | 1.92 | 1.49 | 1.42
AAGUUUGGUAAUAGUCGCAAG [Fam3.1 aminoacylation ribozyme variant] | 1.32 | 1.22 | 1.25 | 2.13 | 1.38 | 1.19
AAGUUUGGUAAUAGUCGCACG [Fam3.1 aminoacylation ribozyme variant] | 1.18 | 1.07 | 1.45 | 1.98 | 1.09 | 1.11
AAGUUUGGUAAUAGUCGUAAG [Fam3.1 aminoacylation ribozyme variant] | 1.04 | 0.961 | 0.801 | 1.44 | 1.11 | 0.916
AAGUUUGUUAAUAGGCGCAAG [Fam3.1 aminoacylation ribozyme variant] | 0.767 | 0.799 | 0.556 | 1.05 | 0.763 | 0.652
AAGUUUGUUAAUAGUCGUAAG [Fam3.1 aminoacylation ribozyme variant] | 0.929 | 0.893 | 0.902 | 1.38 | 0.911 | 0.808
AAGUUUGUUGAUAGUCGCAAG [Fam3.1 aminoacylation ribozyme variant] | 1.14 | 1.09 | 1.09 | 1.36 | 1.19 | 1.09
AAGUUUGUUUAUAGUCGCAAG [Fam3.1 aminoacylation ribozyme variant] | 1.3 | 1.34 | 1.26 | 1.47 | 1.52 | 1.24
AAGUUUUCUAAGAGUCGCAAG [Fam3.1 aminoacylation ribozyme variant] | 1.65 | 1.32 | 1.62 | 3.16 | 1.51 | 1.62
AAGUUUUCUAAUAGUCGCAAA [Fam3.1 aminoacylation ribozyme variant] | 1.93 | 1.54 | 1.41 | 3.41 | 2.46 | 1.54
AAUACCCGGGUCAUCGAGUGA [Fam2.1 aminoacylation ribozyme variant] | 3.72 | 5.22 | 6.7 | 34.7 | 7.23 | 3.64
AAUACCCUGGGCAUCGAGUGA [Fam2.1 aminoacylation ribozyme variant] | 1.8 | 3.75 | 3.79 | 8.76 | 3.44 | 2.29
AAUACCCUGGUCAUAGAGUGA [Fam2.1 aminoacylation ribozyme variant] | 2.68 | 4.64 | 4.68 | 10.7 | 5.58 | 2.3
AAUACCCUGGUCAUCGAAUGA [Fam2.1 aminoacylation ribozyme variant] | 0.855 | 0.76 | 0.724 | 0.529 | 1.17 | 0.781
AAUCACCUAGCUCAUCGGGUG [Fam2.2 aminoacylation ribozyme variant] | 2.33 | 2.82 | 2.31 | 17.7 | 3.68 | 3.17
AAUCACCUAGGACAUCGGGUG [Fam2.2 aminoacylation ribozyme variant] | 3.91 | 4.09 | 3.27 | 19.1 | 5.94 | 3.32
AAUCACCUAGGUCAUCGGGGG [Fam2.2 aminoacylation ribozyme variant] | 2.91 | 3.21 | 3.66 | 10.6 | 3.96 | 2.77
AAUCACCUAGGUCAUCGGGUA [Fam2.2 aminoacylation ribozyme variant] | 7.76 | 12 | 14.7 | 52.7 | 10.5 | 7.24
AAUCACCUAGGUGAUCGGGUG [Fam2.2 aminoacylation ribozyme variant] | 4.6 | 5.43 | 4.84 | 27.7 | 5.05 | 4.03
AAUCACCUCGGUCAUCGGGUG [Fam2.2 aminoacylation ribozyme variant] | 4.07 | 4.76 | 4.99 | 31.2 | 7.61 | 5.23
AAUCAUCUAGGUCAUCGGGUG [Fam2.2 aminoacylation ribozyme variant] | 4.54 | 5.64 | 5.48 | 41.3 | 7.01 | 4.6

Sequence | self-aminoacylation [1] | self-aminoacylation [2] | self-aminoacylation [3] | self-aminoacylation [4] | self-aminoacylation [5] | self-aminoacylation [6]
AAUCUCCUAGGUCAUCGGGUG [Fam2.2 aminoacylation ribozyme variant] | 4.3 | 6.93 | 6.83 | 35.1 | 5.91 | 4.51
AAUUGUGCUAAUAGUCGCAAG [Fam3.1 aminoacylation ribozyme variant] | 1.93 | 2.02 | 2.18 | 3.05 | 2.44 | 1.75
AAUUUUGCUAAUCGUCGCAAG [Fam3.1 aminoacylation ribozyme variant] | 1.91 | 1.53 | 1.37 | 2.37 | 1.62 | 1.56
AAUUUUGCUAGUAGUCGCAAG [Fam3.1 aminoacylation ribozyme variant] | 2.02 | 1.77 | 1.56 | 2.34 | 1.71 | 1.36
AAUUUUGCUAUUAGUCGCAAG [Fam3.1 aminoacylation ribozyme variant] | 1.98 | 1.71 | 1.89 | 2.76 | 1.85 | 1.63
AAUUUUGCUUAUAGUCGCAAG [Fam3.1 aminoacylation ribozyme variant] | 2.39 | 2.17 | 2.29 | 3.02 | 2.28 | 2.14
AAUUUUUCUAAUAGUCGCAAG [Fam3.1 aminoacylation ribozyme variant] | 1.88 | 1.7 | 1.75 | 3.68 | 1.54 | 1.75
ACACACCUCAAGCAAUCGGUC [Fam1B.1 aminoacylation ribozyme variant] | 0.848 | 0.58 | 0.763 | 1.19 | 0.883 | 0.927
ACACACUUCAACCAAUCGGUC [Fam1B.1 aminoacylation ribozyme variant] | 1.69 | 1.65 | 2.16 | 32.5 | 26.6 | 1.56
ACACACUUCAAGCAAACGGUC [Fam1B.1 aminoacylation ribozyme variant] | 1.02 | 0.749 | 0.941 | 1.56 | 1.13 | 1.04
ACACACUUCAAGCAAGCGGUC [Fam1B.1 aminoacylation ribozyme variant] | 1.6 | 1.33 | 1.52 | 2.18 | 1.74 | 1.73
ACACACUUCAAGCAAUAGGUC [Fam1B.1 aminoacylation ribozyme variant] | 0.894 | 0.828 | 0.737 | 1.57 | 0.901 | 0.976
ACACACUUCAAGCAAUCGGCC [Fam1B.1 aminoacylation ribozyme variant] | 2.7 | 2.21 | 2.54 | 4 | 6.35 | 2.57
ACACACUUCAAGCAAUCGGUG [Fam1B.1 aminoacylation ribozyme variant] | 5.89 | 7.83 | 10.5 | 56.7 | 9.81 | 5.84
ACACACUUCAAGCAAUGGGUC [Fam1B.1 aminoacylation ribozyme variant] | 0.996 | 1.03 | 0.794 | 1.04 | 1.03 | 0.947
ACACACUUCAAUCAAUCGGUC [Fam1B.1 aminoacylation ribozyme variant] | 1.59 | 1.39 | 1.74 | 29.4 | 19.8 | 1.53
ACAGACUUCAAGCAAUCGGUC [Fam1B.1 aminoacylation ribozyme variant] | 2.39 | 2.39 | 3.24 | 68.1 | 38.2 | 2.27
ACCCACCUAGGUCAUCGGGUG [Fam2.2 aminoacylation ribozyme variant] | 5.07 | 5.93 | 5.88 | 54 | 6.03 | 5.64
ACGAUUGCUAAUAGUCGCAAG [Fam3.1 aminoacylation ribozyme variant] | 1.35 | 1.23 | 1.57 | 1.54 | 0.96 | 1.43
ACGGUUGCUAAUAGUCGCAAG [Fam3.1 aminoacylation ribozyme variant] | 1.3 | 1.19 | 1.31 | 2.51 | 1.38 | 1.32
ACGUGUGCUAAUAGUCGCAAG [Fam3.1 aminoacylation ribozyme variant] | 1.6 | 1.62 | 1.68 | 4.86 | 1.63 | 1.28
